Data taken from patent US20210246166A1 (Bayer, published 2021).
One block for each binder: values may come before it. Numbered stars: 1 amine (or outer) side, 2 acyl side, 3 side chain; on linkers, the order of the positions; unused ones are H or OH. Bridge positions count the residues as written; N and C are the ends. Square brackets hold non-standard residues; d marks the D form. Ends that are not written are not given here. PEG9(31 atoms) = 1-amino-3,6,9,12,15,18,21,24,27-nonaoxatriacontan-30-oic acid; cPrCO(1-aminomethyl) = O=C(C1(CN[*:1])CC1)[*:2]; Pro(4-spirocPr) = O=C(O)[C@@H]1CC2(CC2)CN1; Oic = O=C(O)[C@@H]1C[C@@H]2CCCC[C@@H]2N1; tBuAla = CC(C)(C)C[C@H](N)C(=O)O; Pen = CC(C)(S)[C@H](N)C(=O)O; NMeC = CN[C@@H](CS)C(=O)O; PEG3 = NCCOCCOCCOCCC(=O)O; PEG2 = NCCOCCOCCC(=O)O; Sar = CNCC(=O)O

Key:
[1] = biological target: recombinant rat MASP2 active protease (amino acids 296-685, C-terminal His Tag) (rat, UniProt Q9JJS8 296-685); test: cell-based or functional assay
recombinant rat MASP2 active protease (amino acids 296-685, C-terminal His Tag), sequence (Q9JJS8 other isoform, or with tags, fused parts or gaps limits assumed): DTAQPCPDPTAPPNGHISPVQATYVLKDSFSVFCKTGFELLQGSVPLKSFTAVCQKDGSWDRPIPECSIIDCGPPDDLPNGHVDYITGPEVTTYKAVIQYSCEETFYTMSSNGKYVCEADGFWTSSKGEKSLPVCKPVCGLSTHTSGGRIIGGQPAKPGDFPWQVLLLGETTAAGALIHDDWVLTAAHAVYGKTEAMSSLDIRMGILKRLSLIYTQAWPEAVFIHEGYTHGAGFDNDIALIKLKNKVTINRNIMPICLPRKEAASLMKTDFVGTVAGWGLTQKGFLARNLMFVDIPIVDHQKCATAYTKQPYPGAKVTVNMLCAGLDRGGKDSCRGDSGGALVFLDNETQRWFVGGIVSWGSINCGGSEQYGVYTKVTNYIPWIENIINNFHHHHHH

[2] = biological target: T1, recombinant rat MASP1 active protease (amino acids 302-704, C-terminal His Tag) (rat, UniProt Q8CHN8 302-704); test: cell-based or functional assay
T1 sequence: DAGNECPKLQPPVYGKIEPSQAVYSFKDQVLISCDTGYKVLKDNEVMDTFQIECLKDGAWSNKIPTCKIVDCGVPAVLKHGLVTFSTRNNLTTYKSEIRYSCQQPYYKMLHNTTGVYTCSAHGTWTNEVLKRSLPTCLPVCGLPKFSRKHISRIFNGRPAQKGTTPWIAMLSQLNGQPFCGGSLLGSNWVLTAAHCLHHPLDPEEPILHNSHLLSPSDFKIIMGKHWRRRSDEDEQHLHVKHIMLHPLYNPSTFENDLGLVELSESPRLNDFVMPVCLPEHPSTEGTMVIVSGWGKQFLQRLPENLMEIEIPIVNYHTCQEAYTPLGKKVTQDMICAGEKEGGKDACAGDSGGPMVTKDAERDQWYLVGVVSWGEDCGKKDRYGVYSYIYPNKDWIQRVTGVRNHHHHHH

Binder: AICSRSLP[Oic]I[Pen]IPD-OH (disulfide 3-11; also: TFA salt) [Example 13: AIC+SRSLP-(Oic)-I-(Pen)+IPD-OH]
- rat MASP2 IC50 [1]: 16.4 nM

B3: Example 21: AIC+SRS-((tBu)A)-PPI-(Pen)+IPe-NH2 (peptide)
peptide: AICSRS[tBuAla]PPI[Pen]IP[dE]-NH2
modifications: disulfide 3-11; N-terminus assumed
SMILES: CC[C@H](C)[C@H](NC(=O)[C@H](C)N)C(=O)N[C@H]1CSSC(C)(C)[C@@H](C(=O)N[C@H](C(=O)N2CCC[C@H]2C(=O)N[C@H](CCC(=O)O)C(N)=O)[C@@H](C)CC)NC(=O)[C@H]([C@@H](C)CC)NC(=O)[C@@H]2CCCN2C(=O)[C@@H]2CCCN2C(=O)[C@H](CC(C)(C)C)NC(=O)[C@H](CO)NC(=O)[C@H](CCCNC(=N)N)NC(=O)[C@H](CO)NC1=O
- rat MASP1 IC50 [2]: 67 nM
- rat MASP2 IC50 [1]: 40 nM

B4: Example 41: AIC+SRS-((tBu)A)-P-((6S)-5-Azaspiro[2.4]heptane-6-carboxylic acid)-I-((N-Me)C)+IPD-NH2 (peptide)
peptide: AICSRS[tBuAla]P[Pro(4-spirocPr)]I[NMeC]IPD-NH2
modifications: disulfide 3-11; N-terminus assumed
SMILES: CC[C@H](C)[C@H](NC(=O)[C@H](C)N)C(=O)N[C@H]1CSSC[C@@H](C(=O)N[C@H](C(=O)N2CCC[C@H]2C(=O)N[C@@H](CC(=O)O)C(N)=O)[C@@H](C)CC)N(C)C(=O)[C@H]([C@@H](C)CC)NC(=O)[C@@H]2CC3(CC3)CN2C(=O)[C@@H]2CCCN2C(=O)[C@H](CC(C)(C)C)NC(=O)[C@H](CO)NC(=O)[C@H](CCCNC(=N)N)NC(=O)[C@H](CO)NC1=O
- rat MASP1 IC50 [2]: 28 nM
- rat MASP2 IC50 [1]: 13 nM

Binder: [Sar]ICSRSLP[Oic]I[Pen]IP-{PEG3-NH2} (disulfide 3-11) [Example 7: ((N-Me)G)-IC+SRSLP-(Oic)-I-(Pen)+IP-(PEG2(13 atoms))-NH2]
- rat MASP1 IC50 [2]: 30 nM
- rat MASP2 IC50 [1]: 16 nM

The remaining lines, values ahead:

- rat MASP2 IC50 [1]: 80 nM
B1: Example 468: ((N-Me)G)-IC+SRSLP-(Oic)-I-(Pen)+IP-(PEG2(13 atoms))-OH (peptide)
peptide: [Sar]ICSRSLP[Oic]I[Pen]IP[PEG3]-OH
modifications: disulfide 3-11; N-terminus assumed
SMILES: CC[C@H](C)[C@H](NC(=O)CNC)C(=O)N[C@H]1CSSC(C)(C)[C@@H](C(=O)N[C@H](C(=O)N2CCC[C@H]2C(=O)NCCOCCOCCOCCC(=O)O)[C@@H](C)CC)NC(=O)[C@H]([C@@H](C)CC)NC(=O)[C@@H]2C[C@@H]3CCCC[C@@H]3N2C(=O)[C@@H]2CCCN2C(=O)[C@H](CC(C)C)NC(=O)[C@H](CO)NC(=O)[C@H](CCCNC(=N)N)NC(=O)[C@H](CO)NC1=O

- rat MASP1 IC50 [2]: 56 nM
- rat MASP2 IC50 [1]: 48 nM
B2: Example 32: (ACMP)-IC+SRS-((tBu)A)-PPI-(Pen)+IPD-NH2 (peptide)
peptide: [cPrCO(1-aminomethyl)]ICSRS[tBuAla]PPI[Pen]IPD-NH2
modifications: disulfide 3-11; N-terminus assumed
SMILES: CC[C@H](C)[C@@H]1NC(=O)[C@@H]2CCCN2C(=O)[C@@H]2CCCN2C(=O)[C@H](CC(C)(C)C)NC(=O)[C@H](CO)NC(=O)[C@H](CCCNC(=N)N)NC(=O)[C@H](CO)NC(=O)[C@@H](NC(=O)[C@@H](NC(=O)C2(CN)CC2)[C@@H](C)CC)CSSC(C)(C)[C@@H](C(=O)N[C@H](C(=O)N2CCC[C@H]2C(=O)N[C@@H](CC(=O)O)C(N)=O)[C@@H](C)CC)NC1=O

- rat MASP2 IC50 [1]: 17.4 nM
Binder: AICSRSLP[Oic]I[Pen]IPD-OH (disulfide 3-11; also: HCl salt) [Example 29: AIC+SRSLP-(Oic)-I-(Pen)+IPD-OH (HCl salt)]

- rat MASP1 IC50 [2]: 87 nM
- rat MASP2 IC50 [1]: 35 nM
Binder: [Sar]ICSRS[tBuAla]PPI[Pen]IP[PEG9(31 atoms)]-NH2 (disulfide 3-11) [Example 44: ((N-Me)G)-IC+SRS-((tBu)A)-PPI-(Pen)+IP-(PEG9(31 atoms))-NH2]

- rat MASP1 IC50 [2]: 49 nM
- rat MASP2 IC50 [1]: 37 nM
Binder: [Sar]ICSRS[tBuAla]PPI[Pen]IP-{PEG2-NH2} (disulfide 3-11; also: HCl salt) [Example 39: ((N-Me)G)-IC+SRS-((tBu)A)-PPI-(Pen)+IP-(PEG1(10 atoms))-NH2 (HCl salt)]
